According to IntAct's records for PubMed 20562859:

B1: Gamma-aminobutyric acid receptor-associated protein (Homo sapiens), O95166 (parent)
chain: MKFVYKEEHPFEKRRSEGEKIRKKYPDRVPVIVEKAPKARIGDLDKKKYLVPSDLTVGQFYFLIRKRIHLRAEDALFFFVNNVIPPTSATMGQLYQEHHEEDFFLYIAYSDESVYGL
partner: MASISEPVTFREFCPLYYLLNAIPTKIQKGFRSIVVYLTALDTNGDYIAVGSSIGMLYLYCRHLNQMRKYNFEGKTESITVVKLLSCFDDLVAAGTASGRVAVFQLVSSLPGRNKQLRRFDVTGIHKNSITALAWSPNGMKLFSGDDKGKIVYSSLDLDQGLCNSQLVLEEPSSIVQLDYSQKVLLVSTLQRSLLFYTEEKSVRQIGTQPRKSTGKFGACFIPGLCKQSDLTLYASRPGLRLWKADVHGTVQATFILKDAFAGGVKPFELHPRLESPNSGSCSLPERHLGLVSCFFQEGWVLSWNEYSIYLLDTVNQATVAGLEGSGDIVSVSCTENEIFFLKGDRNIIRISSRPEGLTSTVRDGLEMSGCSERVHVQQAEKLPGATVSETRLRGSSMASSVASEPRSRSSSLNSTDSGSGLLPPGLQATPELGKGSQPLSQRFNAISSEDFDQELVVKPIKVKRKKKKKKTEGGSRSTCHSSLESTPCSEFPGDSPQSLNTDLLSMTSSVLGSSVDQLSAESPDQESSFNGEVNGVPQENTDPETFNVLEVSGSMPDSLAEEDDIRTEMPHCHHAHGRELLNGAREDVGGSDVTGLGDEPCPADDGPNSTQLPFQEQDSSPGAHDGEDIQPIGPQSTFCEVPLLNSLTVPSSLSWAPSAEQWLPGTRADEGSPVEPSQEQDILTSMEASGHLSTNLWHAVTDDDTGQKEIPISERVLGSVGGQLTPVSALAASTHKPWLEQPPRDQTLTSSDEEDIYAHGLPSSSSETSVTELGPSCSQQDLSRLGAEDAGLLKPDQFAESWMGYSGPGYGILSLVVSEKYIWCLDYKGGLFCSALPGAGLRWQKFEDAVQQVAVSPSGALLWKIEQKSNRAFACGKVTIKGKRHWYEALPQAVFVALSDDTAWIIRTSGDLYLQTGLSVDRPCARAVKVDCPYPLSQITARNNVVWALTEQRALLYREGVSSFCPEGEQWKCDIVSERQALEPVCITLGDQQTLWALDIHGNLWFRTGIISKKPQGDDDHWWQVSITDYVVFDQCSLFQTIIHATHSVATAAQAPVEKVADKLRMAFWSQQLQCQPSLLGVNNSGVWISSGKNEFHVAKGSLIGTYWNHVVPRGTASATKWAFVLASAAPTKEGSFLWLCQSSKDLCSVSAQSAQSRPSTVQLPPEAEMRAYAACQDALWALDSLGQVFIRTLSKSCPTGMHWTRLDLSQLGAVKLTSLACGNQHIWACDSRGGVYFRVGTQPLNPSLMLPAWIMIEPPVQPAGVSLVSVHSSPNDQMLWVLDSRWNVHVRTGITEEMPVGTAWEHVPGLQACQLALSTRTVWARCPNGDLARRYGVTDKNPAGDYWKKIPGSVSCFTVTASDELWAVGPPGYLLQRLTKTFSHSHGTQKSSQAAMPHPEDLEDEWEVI
B2: Gamma-aminobutyric acid receptor-associated protein (Homo sapiens), O95166 (parent)
chain: B1 chain
partner: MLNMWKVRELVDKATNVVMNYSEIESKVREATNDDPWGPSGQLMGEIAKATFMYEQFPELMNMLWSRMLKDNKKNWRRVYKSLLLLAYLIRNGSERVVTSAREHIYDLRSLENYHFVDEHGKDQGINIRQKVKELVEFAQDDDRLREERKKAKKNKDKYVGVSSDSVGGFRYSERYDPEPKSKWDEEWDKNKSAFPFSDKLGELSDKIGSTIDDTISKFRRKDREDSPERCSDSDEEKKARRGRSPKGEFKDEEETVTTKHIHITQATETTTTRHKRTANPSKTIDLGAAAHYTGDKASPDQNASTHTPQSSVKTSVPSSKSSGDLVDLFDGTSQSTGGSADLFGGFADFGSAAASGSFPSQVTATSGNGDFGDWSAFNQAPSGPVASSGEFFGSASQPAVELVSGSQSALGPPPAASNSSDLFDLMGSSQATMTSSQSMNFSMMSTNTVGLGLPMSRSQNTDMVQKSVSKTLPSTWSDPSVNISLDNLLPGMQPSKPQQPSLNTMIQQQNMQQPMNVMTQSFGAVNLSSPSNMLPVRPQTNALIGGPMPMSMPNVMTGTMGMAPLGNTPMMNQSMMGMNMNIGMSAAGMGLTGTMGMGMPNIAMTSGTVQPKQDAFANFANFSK
B3: Gamma-aminobutyric acid receptor-associated protein (Homo sapiens), O95166 (parent)
chain: B1 chain
partner: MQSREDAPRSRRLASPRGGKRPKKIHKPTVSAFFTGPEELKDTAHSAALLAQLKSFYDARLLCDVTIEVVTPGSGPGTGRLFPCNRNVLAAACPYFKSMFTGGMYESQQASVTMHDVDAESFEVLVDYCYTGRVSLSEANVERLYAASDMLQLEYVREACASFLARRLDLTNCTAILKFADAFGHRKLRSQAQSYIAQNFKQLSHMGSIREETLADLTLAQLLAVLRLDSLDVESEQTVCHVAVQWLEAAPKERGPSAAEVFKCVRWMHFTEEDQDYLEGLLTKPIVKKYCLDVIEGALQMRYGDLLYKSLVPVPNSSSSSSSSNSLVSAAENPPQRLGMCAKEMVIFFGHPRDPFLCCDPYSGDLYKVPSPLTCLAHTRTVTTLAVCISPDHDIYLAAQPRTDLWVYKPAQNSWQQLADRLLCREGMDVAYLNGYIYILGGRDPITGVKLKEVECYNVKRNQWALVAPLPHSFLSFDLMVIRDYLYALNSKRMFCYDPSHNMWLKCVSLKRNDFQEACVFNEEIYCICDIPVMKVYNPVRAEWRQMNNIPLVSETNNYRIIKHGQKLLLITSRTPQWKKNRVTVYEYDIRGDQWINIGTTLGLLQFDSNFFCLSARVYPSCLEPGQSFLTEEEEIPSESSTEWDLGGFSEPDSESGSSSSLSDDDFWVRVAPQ
B4: Gamma-aminobutyric acid receptor-associated protein (Homo sapiens), O95166 (parent)
chain: B1 chain
partner: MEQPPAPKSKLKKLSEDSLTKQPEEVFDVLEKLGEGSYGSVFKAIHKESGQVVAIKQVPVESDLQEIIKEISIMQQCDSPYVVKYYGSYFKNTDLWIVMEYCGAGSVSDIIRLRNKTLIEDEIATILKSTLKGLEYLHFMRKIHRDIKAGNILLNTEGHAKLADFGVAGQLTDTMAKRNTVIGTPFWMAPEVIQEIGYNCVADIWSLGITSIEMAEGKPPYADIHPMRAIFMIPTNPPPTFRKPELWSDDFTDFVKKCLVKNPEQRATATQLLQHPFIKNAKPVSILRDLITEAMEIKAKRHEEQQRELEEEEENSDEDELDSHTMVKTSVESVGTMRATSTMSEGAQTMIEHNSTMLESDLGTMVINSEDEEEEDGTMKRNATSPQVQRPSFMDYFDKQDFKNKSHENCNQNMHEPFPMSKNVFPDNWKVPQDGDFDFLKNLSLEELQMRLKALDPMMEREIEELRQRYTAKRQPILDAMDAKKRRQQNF
B5: Gamma-aminobutyric acid receptor-associated protein (Homo sapiens), O95166 (parent)
chain: B1 chain
partner: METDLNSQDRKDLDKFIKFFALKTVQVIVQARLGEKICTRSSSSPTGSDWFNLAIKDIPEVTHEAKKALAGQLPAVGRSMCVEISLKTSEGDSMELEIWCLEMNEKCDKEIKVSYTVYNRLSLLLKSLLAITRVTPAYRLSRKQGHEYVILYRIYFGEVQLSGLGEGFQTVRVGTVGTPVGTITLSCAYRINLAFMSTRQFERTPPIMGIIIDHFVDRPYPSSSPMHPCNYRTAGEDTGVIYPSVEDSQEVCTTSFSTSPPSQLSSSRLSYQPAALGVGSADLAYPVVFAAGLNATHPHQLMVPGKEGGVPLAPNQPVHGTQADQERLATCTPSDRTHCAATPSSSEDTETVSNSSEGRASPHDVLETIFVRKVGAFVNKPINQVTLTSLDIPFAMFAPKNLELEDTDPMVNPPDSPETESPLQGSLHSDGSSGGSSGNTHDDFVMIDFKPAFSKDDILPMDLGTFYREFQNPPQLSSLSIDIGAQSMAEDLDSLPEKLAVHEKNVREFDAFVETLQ
B6: Gamma-aminobutyric acid receptor-associated protein (Homo sapiens), O95166 (parent)
chain: B1 chain
partner: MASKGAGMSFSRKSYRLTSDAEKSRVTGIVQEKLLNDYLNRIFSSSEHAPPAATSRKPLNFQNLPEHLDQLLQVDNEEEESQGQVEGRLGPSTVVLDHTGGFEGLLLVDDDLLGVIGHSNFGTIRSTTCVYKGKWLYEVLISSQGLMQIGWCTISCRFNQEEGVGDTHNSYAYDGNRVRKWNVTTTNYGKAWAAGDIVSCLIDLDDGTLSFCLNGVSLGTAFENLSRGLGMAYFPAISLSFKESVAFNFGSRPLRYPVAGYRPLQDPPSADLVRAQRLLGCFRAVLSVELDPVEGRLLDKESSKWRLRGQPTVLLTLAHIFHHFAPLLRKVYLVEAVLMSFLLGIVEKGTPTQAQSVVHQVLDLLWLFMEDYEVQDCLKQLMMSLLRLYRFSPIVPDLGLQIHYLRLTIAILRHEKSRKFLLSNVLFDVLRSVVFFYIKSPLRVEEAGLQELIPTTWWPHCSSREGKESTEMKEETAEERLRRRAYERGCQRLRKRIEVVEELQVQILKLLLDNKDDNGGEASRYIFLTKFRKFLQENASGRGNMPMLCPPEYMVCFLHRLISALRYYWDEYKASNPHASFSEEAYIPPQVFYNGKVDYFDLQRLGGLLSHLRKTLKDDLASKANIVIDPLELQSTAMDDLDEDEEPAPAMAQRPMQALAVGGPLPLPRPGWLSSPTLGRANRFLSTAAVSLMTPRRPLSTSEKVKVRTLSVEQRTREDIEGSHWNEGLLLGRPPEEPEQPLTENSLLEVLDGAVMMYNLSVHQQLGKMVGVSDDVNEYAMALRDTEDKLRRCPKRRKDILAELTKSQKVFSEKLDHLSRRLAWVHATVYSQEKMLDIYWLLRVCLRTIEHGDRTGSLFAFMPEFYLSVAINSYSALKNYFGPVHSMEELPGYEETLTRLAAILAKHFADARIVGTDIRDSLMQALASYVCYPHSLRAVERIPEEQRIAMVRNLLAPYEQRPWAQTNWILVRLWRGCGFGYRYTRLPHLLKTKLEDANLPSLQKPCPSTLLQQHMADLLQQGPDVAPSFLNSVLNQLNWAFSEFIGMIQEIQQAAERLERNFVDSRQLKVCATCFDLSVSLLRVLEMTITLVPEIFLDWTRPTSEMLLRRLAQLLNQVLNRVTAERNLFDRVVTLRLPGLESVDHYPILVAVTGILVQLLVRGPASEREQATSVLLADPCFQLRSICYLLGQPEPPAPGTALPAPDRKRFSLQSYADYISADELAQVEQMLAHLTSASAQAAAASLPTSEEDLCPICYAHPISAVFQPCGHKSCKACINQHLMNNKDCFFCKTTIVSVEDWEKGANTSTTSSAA

Variants of: B1
Conditions: with tcpr2_human TECPR2, O15040

Variant | effect of a mutation on the interaction
Y49A;L50A | decreasing interaction

Variants of: B2
Conditions: with epn4_human CLINT1, Q14677

Variant | effect of a mutation on the interaction
Y49A;L50A | decreasing interaction

Variants of: B3
Conditions: with kbtb6_human KBTBD6, Q86V97

Variant | effect of a mutation on the interaction
Y49A;L50A | decreasing interaction

Variants of: B4
Conditions: with stk3_human STK3, Q13188

Variant | effect of a mutation on the interaction
Y49A;L50A | decreasing interaction

Variants of: B5
Conditions: with atg13_human ATG13, O75143

Variant | effect of a mutation on the interaction
Y49A;L50A | decreasing interaction

Variants of: B6
Conditions: with rn123_human RNF123, Q5XPI4

Variant | effect of a mutation on the interaction
Y49A;L50A | decreasing interaction
